{"source": "paper PMC4207562", "about": "“Study of the Structure-Function-Stability Relationships in Yeast D-amino Acid Oxidase: Hydrophobization of Alpha-Helices” (Acta Naturae, 2014)", "proteins": {"B1": {"name": "TvDAAO (Trigonopsis variabilis) (protein)", "chain": "MAKIVVIGAGVAGLTTALQLLRKGHEVTIVSEFTPGDLSIGYTSPWAGANWLTFYDGGKLADYDAVSYPILRELARSSPEAGIRLISQRSHVLKRDLPKLEVAMSAICQRNPWFKNTVDSFEIIEDRSRIVHDDVAYLVEFRSVCIHTGVYLNWLMSQCLSLGATVVKRRVNHIKDANLLHSSGSRPDVIVNCSGLFARFLGGVEDKKMYPIRGQVVLVRNSLPFMASFSSTPEKENEDEALYIMTRFDGTSIIGGCFQPNNWSSEPDPSLTHRILSRALDRFPELTKDGPLDIVRECVGHRPGREGGPRVELEKIPGVGFVVHNYGAAGAGYQSSYGMADEAVSYVERALTRPNL", "notes": "recombinant tvdaao gene in pET-33b(+) based plasmid, E. coli BL21(DE3) CodonPlus/pLysS; MonoQ purified; FAD homodimer; no tag stated"}, "B2": {"name": "TvDAAO (Trigonopsis variabilis; S105A) (protein)", "chain": "B1 chain with S105A"}, "B3": {"name": "TvDAAO (Trigonopsis variabilis; S77A) (protein)", "chain": "B1 chain with S77A", "notes": "as for B1"}, "B4": {"name": "TvDAAO (Trigonopsis variabilis; S336A) (protein)", "chain": "B1 chain with S336A"}, "B5": {"name": "TvDAAO (Trigonopsis variabilis; S335A) (protein)", "chain": "B1 chain with S335A", "notes": "as for B1"}, "B6": {"name": "TvDAAO (Trigonopsis variabilis; S67A) (protein)", "chain": "B1 chain with S67A", "notes": "as for B1"}, "B7": {"name": "TvDAAO (Trigonopsis variabilis; S277A) (protein)", "chain": "B1 chain with S277A"}}, "conditions_in_all_cases": "50 mM potassium phosphate pH 8.0, 30 °C, air-saturated", "key": {"[1]": {"substrate": "NC(=O)C[C@@H](N)C(=O)O", "assay": "peroxidase/ABTS coupled assay, A414", "format": "biochemical, Trigonopsis variabilis", "text": "(§1) peroxidase/ABTS coupled assay, A414 on TvDAAO"}, "[2]": {"substrate": "N[C@H](Cc1c[nH]c2ccccc12)C(=O)O", "assay": "peroxidase/ABTS coupled assay, A414", "format": "biochemical, Trigonopsis variabilis", "text": "as §1"}, "[3]": {"substrate": "N[C@H](Cc1ccc(O)cc1)C(=O)O", "assay": "peroxidase/ABTS coupled assay, A414", "format": "biochemical, Trigonopsis variabilis", "text": "as §1"}, "[4]": {"substrate": "NCCCC[C@@H](N)C(=O)O", "assay": "peroxidase/ABTS coupled assay, A414", "format": "biochemical, Trigonopsis variabilis", "text": "as §1"}, "[5]": {"substrate": "CSCC[C@@H](N)C(=O)O", "assay": "peroxidase/ABTS coupled assay, A414", "format": "biochemical, Trigonopsis variabilis", "text": "as §1"}, "purified protein [6]": {"substrate": "N[C@H](Cc1ccccc1)C(=O)O", "assay": "purified protein"}, "purified protein [7]": {"substrate": "CC(C)C[C@@H](N)C(=O)O", "assay": "purified protein"}, "purified protein [8]": {"substrate": "C[C@@H](N)C(=O)O", "assay": "purified protein"}, "purified protein [9]": {"substrate": "N[C@H](CO)C(=O)O", "assay": "purified protein"}, "purified protein [10]": {"substrate": "CC(C)[C@@H](N)C(=O)O", "assay": "purified protein"}, "purified protein [11]": {"substrate": "C[C@H](O)[C@@H](N)C(=O)O", "assay": "purified protein"}}, "note": "Residue numbers refer to the chain shown, from its start. Numbers in names are those of the source."}
{"protein": "B1", "values": [{"measurement": "Km", "setting": "[1]", "value": "22600 ± 1500", "unit": "µM"}, {"measurement": "kcat", "setting": "[1]", "value": "62.4 ± 2", "unit": "s⁻¹"}, {"measurement": "kcat/Km", "setting": "[1]", "value": 2800, "unit": "M⁻¹ s⁻¹"}, {"measurement": "Km", "setting": "[2]", "value": "490 ± 40", "unit": "µM"}, {"measurement": "kcat", "setting": "[2]", "value": "42.4 ± 1.4", "unit": "s⁻¹"}, {"measurement": "kcat/Km", "setting": "[2]", "value": 86500, "unit": "M⁻¹ s⁻¹"}, {"measurement": "Km", "setting": "[3]", "value": "450 ± 60", "unit": "µM"}, {"measurement": "kcat", "setting": "[3]", "value": "22.5 ± 1.9", "unit": "s⁻¹"}, {"measurement": "kcat/Km", "setting": "[3]", "value": 50000, "unit": "M⁻¹ s⁻¹"}, {"measurement": "Km", "setting": "[4]", "value": "29300 ± 3400", "unit": "µM"}, {"measurement": "kcat", "setting": "[4]", "value": "3.54 ± 0.21", "unit": "s⁻¹"}, {"measurement": "kcat/Km", "setting": "[4]", "value": 120, "unit": "M⁻¹ s⁻¹"}, {"measurement": "Km", "setting": "[5]", "value": "460 ± 30", "unit": "µM"}, {"measurement": "kcat", "setting": "[5]", "value": "80.5 ± 0.8", "unit": "s⁻¹"}, {"measurement": "kcat/Km", "setting": "[5]", "value": 175000, "unit": "M⁻¹ s⁻¹"}, {"measurement": "Km", "setting": "purified protein [6]", "value": "370 ± 40", "unit": "µM"}, {"measurement": "kcat", "setting": "purified protein [6]", "value": 27.2, "unit": "s⁻¹"}, {"measurement": "kcat/Km", "setting": "purified protein [6]", "value": 73900, "unit": "M⁻¹ s⁻¹"}, {"measurement": "Km", "setting": "purified protein [7]", "value": "780 ± 20", "unit": "µM"}, {"measurement": "kcat", "setting": "purified protein [7]", "value": 29.1, "unit": "s⁻¹"}, {"measurement": "kcat/Km", "setting": "purified protein [7]", "value": 37300, "unit": "M⁻¹ s⁻¹"}, {"measurement": "Km", "setting": "purified protein [8]", "value": "16700 ± 700", "unit": "µM"}, {"measurement": "kcat", "setting": "purified protein [8]", "value": 109, "unit": "s⁻¹"}, {"measurement": "kcat/Km", "setting": "purified protein [8]", "value": 6500, "unit": "M⁻¹ s⁻¹"}, {"measurement": "Km", "setting": "purified protein [9]", "value": "36600 ± 3300", "unit": "µM"}, {"measurement": "kcat", "setting": "purified protein [9]", "value": 20.5, "unit": "s⁻¹"}, {"measurement": "kcat/Km", "setting": "purified protein [9]", "value": 560, "unit": "M⁻¹ s⁻¹"}, {"measurement": "Km", "setting": "purified protein [10]", "value": "14400 ± 1200", "unit": "µM"}, {"measurement": "kcat", "setting": "purified protein [10]", "value": 85.3, "unit": "s⁻¹"}, {"measurement": "kcat/Km", "setting": "purified protein [10]", "value": 5900, "unit": "M⁻¹ s⁻¹"}, {"measurement": "Km", "setting": "purified protein [11]", "value": "11100 ± 800", "unit": "µM"}, {"measurement": "kcat", "setting": "purified protein [11]", "value": 1.75, "unit": "s⁻¹"}, {"measurement": "kcat/Km", "setting": "purified protein [11]", "value": 160, "unit": "M⁻¹ s⁻¹"}]}
{"protein": "B2", "values": [{"measurement": "Km", "setting": "purified protein [6]", "value": "260 ± 20", "unit": "µM"}, {"measurement": "kcat", "setting": "purified protein [6]", "value": 32.3, "unit": "s⁻¹"}, {"measurement": "kcat/Km", "setting": "purified protein [6]", "value": 124000, "unit": "M⁻¹ s⁻¹"}, {"measurement": "Km", "setting": "purified protein [7]", "value": "280 ± 20", "unit": "µM"}, {"measurement": "kcat", "setting": "purified protein [7]", "value": 30.4, "unit": "s⁻¹"}, {"measurement": "kcat/Km", "setting": "purified protein [7]", "value": 110000, "unit": "M⁻¹ s⁻¹"}]}
{"protein": "B3", "values": [{"measurement": "Km", "setting": "[1]", "value": "4700 ± 700", "unit": "µM"}, {"measurement": "kcat", "setting": "[1]", "value": "17.2 ± 1", "unit": "s⁻¹"}, {"measurement": "kcat/Km", "setting": "[1]", "value": 3700, "unit": "M⁻¹ s⁻¹"}, {"measurement": "Km", "setting": "[3]", "value": "6500 ± 700", "unit": "µM"}, {"measurement": "kcat", "setting": "[3]", "value": "12.4 ± 0.8", "unit": "s⁻¹"}, {"measurement": "kcat/Km", "setting": "[3]", "value": 1900, "unit": "M⁻¹ s⁻¹"}]}
{"protein": "B4", "values": [{"measurement": "Km", "setting": "purified protein [7]", "value": "70 ± 10", "unit": "µM"}, {"measurement": "kcat", "setting": "purified protein [7]", "value": 5, "unit": "s⁻¹"}, {"measurement": "kcat/Km", "setting": "purified protein [7]", "value": 76400, "unit": "M⁻¹ s⁻¹"}]}
{"protein": "B5", "values": [{"measurement": "Km", "setting": "[5]", "value": "4600 ± 200", "unit": "µM"}, {"measurement": "kcat", "setting": "[5]", "value": "45.9 ± 1.1", "unit": "s⁻¹"}, {"measurement": "kcat/Km", "setting": "[5]", "value": 9900, "unit": "M⁻¹ s⁻¹"}]}
{"protein": "B6", "values": [{"measurement": "Km", "setting": "[5]", "value": "1350 ± 40", "unit": "µM"}, {"measurement": "kcat", "setting": "[5]", "value": "104 ± 3", "unit": "s⁻¹"}, {"measurement": "kcat/Km", "setting": "[5]", "value": 77400, "unit": "M⁻¹ s⁻¹"}, {"measurement": "Km", "setting": "purified protein [7]", "value": "340 ± 20", "unit": "µM"}, {"measurement": "kcat", "setting": "purified protein [7]", "value": 31.4, "unit": "s⁻¹"}, {"measurement": "kcat/Km", "setting": "purified protein [7]", "value": 93100, "unit": "M⁻¹ s⁻¹"}]}
{"protein": "B7", "values": [{"measurement": "Km", "setting": "purified protein [7]", "value": "150 ± 20", "unit": "µM"}, {"measurement": "kcat", "setting": "purified protein [7]", "value": 12, "unit": "s⁻¹"}, {"measurement": "kcat/Km", "setting": "purified protein [7]", "value": 80000, "unit": "M⁻¹ s⁻¹"}]}
